T1: recombinant human TIGIT (His Tag) (human, UniProt Q495A1 22-141)
T1 construct: Coated antigen of the ELISA; not shown: His tag
T1 sequence (looked up): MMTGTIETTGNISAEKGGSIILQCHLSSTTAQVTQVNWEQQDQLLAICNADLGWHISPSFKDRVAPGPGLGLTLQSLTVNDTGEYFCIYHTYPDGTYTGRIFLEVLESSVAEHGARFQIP

T2: recombinant human HX1 hCD112R Fc (human, UniProt Q6DKI7 41-171, limits assumed)
T2 construct: Coated antigen of the ELISA (Suzhou Junmeng); also called human CD112R; not shown: Fc part
T2 sequence (looked up): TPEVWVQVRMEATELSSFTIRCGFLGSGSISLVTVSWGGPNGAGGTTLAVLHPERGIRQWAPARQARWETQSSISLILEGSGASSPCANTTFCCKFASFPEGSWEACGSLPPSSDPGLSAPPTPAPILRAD

T3: human TIGIT on the surface of Jurkat-hTIGIT cells (human, UniProt Q495A1 22-244)
T3 construct: whole, on cells; also called human TIGIT on the surface of Jurkat cells
T3 sequence (looked up): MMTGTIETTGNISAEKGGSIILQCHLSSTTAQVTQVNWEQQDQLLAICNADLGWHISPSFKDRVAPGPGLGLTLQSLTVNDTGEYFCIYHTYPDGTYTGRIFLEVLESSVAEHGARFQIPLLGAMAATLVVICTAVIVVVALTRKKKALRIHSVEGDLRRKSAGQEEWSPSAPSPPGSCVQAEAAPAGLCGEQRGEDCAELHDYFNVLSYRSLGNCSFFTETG


What was measured:
[1] = biological target: T1, recombinant human TIGIT (His Tag); test: ELISA, relative binding activity, sample kept at 40 C for 4 weeks
Experimental: (§1) The antibody samples were exchanged into a pH 5.5 buffer system (20 mM histidine-histidine hydrochloride buffer, 230 mM trehalose) with the concentration of the samples controlled at about 5 mg/mL, and the buffer was aliquoted into vials at 500 μL/vial. The vials were placed in a 40° C. incubator to test stability at 0 W, 2 W and 4 W. Samples were sent for analysis according to Table 2. Stability was assessed by the following parameters: (a) the content of antibody monomers, aggregates or fragments determined by SEC-HPLC (size exclusion chromatography); (b) the molecular weight of the antibody determined by CE-SDS (sodium dodecyl sulfate capillary electrophoresis); and (c) the bioactivity of the antibody determined by an ELISA or reporter gene assay.

[2] = biological target: T2, recombinant human HX1 hCD112R Fc; test: as above
Experimental: as §1

[3] = biological target: T3, human TIGIT on the surface of …; test: flow cytometry, blocking of 1 ug/mL PVR-mFc binding to Jurkat-hTIGIT cells
Experimental: Jurkat-hTIGIT cells (human T lymphocytes, human TIGIT positive) were incubated with different concentrations of the bispecific antibodies JS-1, JS-3, JS-5 and JS-9 and 1 μg/mL human PVR-mFc protein at 4° C. for 30 min, then washed and incubated with a fluorescence-labeled anti-mouse IgG secondary antibody (1:200) in a dark place at 4° C. for 30 min. Finally, the cells were collected using a flow cytometer (BD Canto II), and the fluorescent antibodies bound to the cell surface were detected. Raw data were analyzed using FlowJo to obtain MFI values, antibody dose-dependent binding curves (FIG. 4) were fitted using GraphPad, and IC50 was calculated. The positive controls were hu20 (a recombinant humanized anti-TIGIT monoclonal antibody) and JS-Ref (Hengrui) (an anti-TIGIT/CD112R bispecific antibody of Hengrui, expressed and purified according to the sequence of the patent WO2021180205), and the negative control was an anti-KLH-hIgG4 antibody.

TIGIT binding activity Elisa (%) [1] | CD112R binding activity Elisa (%) [2] | IC50 [3] | Binder
97% | 86% | 5.42 nM | bispecific antibody JS-1 (IgG4) (bispecific antibody, Three-chain knob-into-hole format: anti-TIGIT Fab arm and anti-CD112R scFv arm, IgG4 Fc) heavy: QVQLVQSGAEVKKPGASVKVSCKTSGYAFTEYTMHWVRQAPGKGLEWMGGINPNTGGTTYNQKFQGRVTLTVDKSSSTAYMELSSLRSEDTVVYYCAKLLRLMYYFDYWGQGTLVTVSSASTKGPSVFPLAPCSRSTSESTAALGCLVKDYFPEPVTVSWNSGALTSGVHTFPAVLQSSGLYSLSSVVTVPSSSLGTKTYTCNVDHKPSNTKVDKRVESKYGPPCPPCPAPEFLGGPSVFLFPPKPKDTLMISRTPEVTCVVVDVSQEDPEVQFNWYVDGVEVHNAKTKPREEQFNSTYRVVSVLTVLHQDWLNGKEYKCKVSNKGLPSSIEKTISKAKGQPREPQVYTLPPCQEEMTKNQVSLWCLVKGFYPSDIAVEWESNGQPENNYKTTPPVLDSDGSFFLYSRLTVDKSRWQEGNVFSCSVMHEALHNHYTQKSLSLSLGK light: not shown DIVMTQSPDSLAVSLGERATINCKASQSVSNDVAWYQQKPGQPPKLLIYYVSHRFTGVPDRFSGSGSGTDFTLTISSLQAEDVAVYFCHQAYRSPWTFGCGTKLEIKGGGGSGGGGSGGGGSGGGGSEVQLVESGGGLVKPGGSLRLSCAASGFTFSSYHMSWVRQAPGKCLELVSAINSNGINTYYLDTVKGRFTISRDNAKNSLYLQMNSLRAEDTAVYYCARHEDYYGFAMDYWGQGTLVTVSSGGGGSGGGGSESKYGPPCPPCPAPEFLGGPSVFLFPPKPKDTLMISRTPEVTCVVVDVSQEDPEVQFNWYVDGVEVHNAKTKPREEQFNSTYRVVSVLTVLHQDWLNGKEYKCKVSNKGLPSSIEKTISKAKGQPREPQVCTLPPSQEEMTKNQVSLSCAVKGFYPSDIAVEWESNGQPENNYKTTPPVLDSDGSFFLVSRLTVDKSRWQEGNVFSCSVMHEALHNRFTQKSLSLSLGK
84% | 88% | 6.78 nM | bispecific antibody JS-3 (IgG4) (bispecific antibody, Two-chain scFab/scFab knob-into-hole format, IgG4 Fc) chain 1: not shown chain 2: DIVMTQSPDSLAVSLGERATINCKASQSVSNDVAWYQQKPGQPPKLLIYYVSHRFTGVPDRFSGSGSGTDFTLTISSLQAEDVAVYFCHQAYRSPWTFGQGTKLEIKRTVAAPSVFIFPPSDEQLKSGTASVVCLLNNFYPREAKVQWKVDNALQSGNSQESVTEQDSKDSTYSLSSTLTLSKADYEKHKVYACEVTHQGLSSPVTKSFNRGECSGGGSGGGSEGGGSEGGGSEGGGSEGGGSGGGSGEVQLVESGGGLVKPGGSLRLSCAASGFTFSSYHMSWVRQAPGKGLELVSAINSNGINTYYLDTVKGRFTISRDNAKNSLYLQMNSLRAEDTAVYYCARHEDYYGFAMDYWGQGTLVTVSSASTKGPSVFPLAPCSRSTSESTAALGCLVKDYFPEPVTVSWNSGALTSGVHTFPAVLQSSGLYSLSSVVTVPSSSLGTKTYTCNVDHKPSNTKVDKRVESKYGPPCPPCPAPEFLGGPSVFLFPPKPKDTLMISRTPEVTCVVVDVSQEDPEVQFNWYVDGVEVHNAKTKPREEQFNSTYRVVSVLTVLHQDWLNGKEYKCKVSNKGLPSSIEKTISKAKGQPREPQVCTLPPSQEEMTKNQVSLSCAVKGFYPSDIAVEWESNGQPENNYKTTPPVLDSDGSFFLVSRLTVDKSRWQEGNVFSCSVMHEALHNRFTQKSLSLSLGK

Reference: patent US20240117043A1 (SHANGHAI JUNSHI BIOSCIENCES, published 2024)
